Data taken from publication PMC13053990.

Columns and labels:
[1] = molecular target: EGFP-miPEP8 SLiMmt (mutated SLiM MOD_Plk1/MOD_Plk4) (Drosophila melanogaster); test: affinity purification with mass spectrometry; GFP-Trap agarose beads O/N at 4 °C on lysates of S2 cells transfected with EGFP, EGFP-miPEP8 or EGFP-miPEP8 SLiMmt; lysis buffer 50 mM Tris pH 7.5, 50 mM NaCl, 5% glycerol, 0.1% Igepal; four washes; LC-MS/MS, MaxQuant
[2] = molecular target: miPEP8 fused on its C-terminus to the N-terminal fragment of luciferase (N-Luc) (Drosophila melanogaster); test: split reporter (BiFC, NanoBiT); split firefly luciferase in S2 cells: miPEP8 or Ey fused to N-Luc, candidates or Antp fused to C-Luc; 48 h after transfection, D-luciferin, luminescence normalised; negative control: the two fragments not fused to any protein

B1: ref(2)P (refractory to sigma P), the orthologue of the human p62/Sequestosome 1 protein (natural protein)
chain: MPEKLLKITYQGAGPQKKINAYLRMPSQNYTILRREIELYLFQERQLPKCDVRTFWIDADKDEIEIVNQNDYEIFLAKCESNMHVQVAPLAPVEEPKATKQEGSSANAEAPSVDDPSNFTIHDAVECDGCGLAPLIGFRYKCVQCSNYDLCQKCELAHKHPEHLMLRMPTNNGPGMVDAWFTGPGLGRRSGRRSRGHCPFQETNQADPAGEPARDSRRERRQARRHAGVLTQFVEMMTNLPLNTTTATAPAEPQKPKAAEQTESPPQAEPTVTAEKAAESEAKPTEPKKVNTDQSVPRTEDPVTTPRSTQPTTPVINLDNISQIVPPEYMSAGIEILNNFSEMFSKIIDTTEGGDSGIFAPSTTPSAENKKPEEQGQSSGQSGASSANQSAVPSAAPSANQSNVPSANQSATPSISGSIPDAQLETEPLNPKPSETTTETEQERRRSDSLDPEWQLIDNAYSANNSNLINLDTTNPTAAPQEPVRDFGQLGELLRQHMNEEARVEQASANTQTAQVDTVSTSTSTTSVTTNSVGTSPAAPDDKRTVPVYHTDESINKSIHAMMAMGFSNEGAWLTQLLESVQGNISAALDVMNVSQNRN
fold decrease of the interaction against EGFP-miPEP8 (MS intensity) [1]: 2.8 fold

B2: PI3K92 E fused with the C-terminal fragment of the luciferase (natural protein)
chain: MNMMDNRALAYVAHQPKYETPPEEAEPPCMRFSVNLWKNEMLNWVDLICLLPNGFLLELRVNPANTIQVIKVEMVNQAKQMPLGYVIKEACEYQVYGISTFNIEPYTDETKRLSEVQPYFGILSLGERTDTTSFSSDYELTKMVNGMIGTTFDHNRTHGSPEIDDFRLYMTQTCDNIELERSAYTWQQRLLYEHPLRLANSTKMPELIRERHPTRTFLIVVKNENDQSTFTLSVNEQDTPFSLTESTLQKMNRSQMKMNDRTSDYILKVSGRDEYLLGDYPLIQFLYIQEMLSDSAVPNVVLQSVYRLESYINHHNEQAMVTKRPLPKKRTVHLHKSISSLWDMGNYFQLTLHSISNVNFDKTRALKVGVHVCLYHGDKKLCAQRSTDSPNGNFDTFLFNDLVMDFDIQMRNLPRMTRLCIVIFEVTKMSRSKKSSNNKDIALKDVPYNKNPLAWVNTTIFDHKDILRTGRHTLYTWTYADDIQSVEVFHPLGTIEPNPRKEECALVDLTFLSSGTGTVRYPSEEVVLQYAADREQVNRLQRQLAGPEKPIKELKELMANYTGLDKIYEMVDQDRNAIWERRNDILRELPEELSILLHCVYWKERDDVADMWYLLKQWPLISIERSLELLDYAYPDPAVRRFAIRCLHFLKDEDLLLYLLQLVQAIKHESYLESDLVVFLLERALRNQRIGHYFFWHLRSEMQTPSMQTRFGLLLEVYLKGCKHHVAPLRKQLHVLEKLKQGSLIAKKGSKEKVKTMLQDFLRDQRNSAVFQNIQNPLNPSFRCSGVTPDRCKVMDSKMRPLWVVFENADVNASDVHIIFKNGDDLRQDMLTLQMLRVMDQLWKRDGMDFRMNIYNCISMEKSLGMIEVVRHAETIANIQKEKGMFSATSPFKKGSLLSWLKEHNKPADKLNKAINEFTLSCAGYCVATYVLGVADRHSDNIMVKRNGQLFHIDFGHILGHFKEKLGVRRERVPFVLTHDFVYVINKGFNDRESKEFCHFQELCERAFLVLRKHGCLILSLFSMMISTGLPELSSEKDLDYLRETLVLDYTEEKAREHFRAKFSEALANSWKTSLNWASHNFSKNNKQ
luminescence signal, times the negative control (times the negative control) [2]: 4.6
